Results from paper PMC8187409, “The zinc-finger protein Red1 orchestrates MTREC submodules and binds the Mtl1 helicase arch domain” (Nature Communications, 2021).
Values belong to the molecule of their own block, whether it stands above or below them.

Tests used:
[1] = molecular target: ZZ-ctRed1_(spep) (residues 1040–1091) (Chaetomium thermophilum); assay: ITC; MicroCal PEAQ-ITC, 25 °C, 20 mM HEPES pH 7.5, 150 mM NaCl; 30 µM ZZ-ctRed1spep in the cell, 250 µM ctMtr4SA in the syringe; duplicate
[2] = molecular target: T1, full-length spArs2 (in vitro binding) (S. pombe, UniProt O94326 1-609); assay: pull-down; GST pull-down: bait with 1.5 molar excess of prey, 20 mM HEPES pH 7.5, 150 mM NaCl (or higher, up to 600 mM or 1.5 M in the washes), 5% glycerol, 0.1% NP-40, 4 °C, glutathione agarose; SDS-PAGE, Coomassie; settings: both partners purified
T1 construct: Ars2, S. pombe; source: E. coli (vectors for expression in E. coli)
T1 sequence (looked up): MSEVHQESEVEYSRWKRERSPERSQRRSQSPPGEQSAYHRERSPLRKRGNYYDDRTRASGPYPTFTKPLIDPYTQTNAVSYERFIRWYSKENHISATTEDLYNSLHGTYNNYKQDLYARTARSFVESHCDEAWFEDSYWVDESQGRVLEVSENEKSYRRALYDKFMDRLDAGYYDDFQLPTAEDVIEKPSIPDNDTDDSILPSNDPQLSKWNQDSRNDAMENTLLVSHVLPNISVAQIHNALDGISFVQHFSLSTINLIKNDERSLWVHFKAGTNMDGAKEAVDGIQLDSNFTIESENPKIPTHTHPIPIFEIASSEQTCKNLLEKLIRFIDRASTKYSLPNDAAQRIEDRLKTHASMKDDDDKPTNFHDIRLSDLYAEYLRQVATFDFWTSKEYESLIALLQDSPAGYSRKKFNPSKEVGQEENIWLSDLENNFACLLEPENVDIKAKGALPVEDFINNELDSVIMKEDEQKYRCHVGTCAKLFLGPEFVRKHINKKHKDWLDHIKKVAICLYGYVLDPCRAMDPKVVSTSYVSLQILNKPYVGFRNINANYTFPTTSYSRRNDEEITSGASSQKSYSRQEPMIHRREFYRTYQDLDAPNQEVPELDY

- Kd [1]: 115 nM
- stoichiometry N [1]: 1
Molecule: ctMtr4SA (residues 654–865), purified for ITC (domain or fragment)

- binding result [2]: binds
B1: GST-tagged spRed1 peptide (SDKEDGEISEDDP) (peptide)
chain: SDKEDGEISEDDP
notes: source: E. coli (vectors for expression in E. coli)
